Results from PMC11965559 (Nature Communications, 2024).
Blank lines part the entries; values can stand above or below the binder they belong to.

B2: Brr1, full length, HT-tag removed (natural protein, S. cerevisiae, UniProt Q99177 1-341, looked up)
chain: MKRGESQAPDAIFGQSRAFALSDSSVNPDVIEYLKSVRQEALRTNAISIKNHMNLQKRTRHKSSMYDDEDEGALKRHAISPSLIRLQRNVEIWVRWFNSVKATVLTNAYEFTGYEDETLDLLLLFLKNYLEDMPSKCTTVEKIISVLNQHSFPEKAEEKEENLQIDEEWAKNILVRLEKTKIDSVEDVKKVITEGDKHELVGYNQWFQYLINNEPQHTTFHEKITSKQLWVLIKYMSNTWIKEIHKKGRHYRRLQDWLFYILVHTPERVTAEYTSILRDLGKKCLELIQKKPVEAHENKITLPKEMAELNVEIPAAVENMTITELTVSVIAVNYGQKDLIE
B3: HT-Brr1, full-length Brr1 with N-terminal HT-tag (natural protein, S. cerevisiae, UniProt Q99177 1-341, looked up)
chain: MKRGESQAPDAIFGQSRAFALSDSSVNPDVIEYLKSVRQEALRTNAISIKNHMNLQKRTRHKSSMYDDEDEGALKRHAISPSLIRLQRNVEIWVRWFNSVKATVLTNAYEFTGYEDETLDLLLLFLKNYLEDMPSKCTTVEKIISVLNQHSFPEKAEEKEENLQIDEEWAKNILVRLEKTKIDSVEDVKKVITEGDKHELVGYNQWFQYLINNEPQHTTFHEKITSKQLWVLIKYMSNTWIKEIHKKGRHYRRLQDWLFYILVHTPERVTAEYTSILRDLGKKCLELIQKKPVEAHENKITLPKEMAELNVEIPAAVENMTITELTVSVIAVNYGQKDLIE
B5: Lot5ΔC, Lot5 (residues 1–227), as used in GFC (domain or fragment, S. cerevisiae, UniProt P34234 1-227, looked up)
chain: MMKKKPKCQIARTKPSVENVIPYNQFKKTQPRFNGNFSALNNEEYIILFGGGRDLILGSLTPCSSSHLSNQANPQDTSEYGTDLFILNSCIIIWFNGLGYGLEIPYSSVLYHASRRLPDGREGLQLEILLTLERDEVLDMLYQSLAPQACEFDGEEAHAFTVRSVELTIRPKYSIYDRHYNNEIETLFTFENFGVNRGDDLVNNCNEALAVCMDLHGEDVQDQDQEQ
B6: HT-Lot5ΔC, Lot5 (residues 1–227) with N-terminal HT-tag (domain or fragment, S. cerevisiae, UniProt P34234 1-227, looked up)
chain: MMKKKPKCQIARTKPSVENVIPYNQFKKTQPRFNGNFSALNNEEYIILFGGGRDLILGSLTPCSSSHLSNQANPQDTSEYGTDLFILNSCIIIWFNGLGYGLEIPYSSVLYHASRRLPDGREGLQLEILLTLERDEVLDMLYQSLAPQACEFDGEEAHAFTVRSVELTIRPKYSIYDRHYNNEIETLFTFENFGVNRGDDLVNNCNEALAVCMDLHGEDVQDQDQEQ

Legend:
[1] = target: B5; experiment: SEC
[2] = target: B6; experiment: pull-down
[3] = target: T1, full-length Lot5 with N-terminal HT-tag (S. cerevisiae, UniProt P34234 1-306); experiment: pull-down
T1 sequence (looked up): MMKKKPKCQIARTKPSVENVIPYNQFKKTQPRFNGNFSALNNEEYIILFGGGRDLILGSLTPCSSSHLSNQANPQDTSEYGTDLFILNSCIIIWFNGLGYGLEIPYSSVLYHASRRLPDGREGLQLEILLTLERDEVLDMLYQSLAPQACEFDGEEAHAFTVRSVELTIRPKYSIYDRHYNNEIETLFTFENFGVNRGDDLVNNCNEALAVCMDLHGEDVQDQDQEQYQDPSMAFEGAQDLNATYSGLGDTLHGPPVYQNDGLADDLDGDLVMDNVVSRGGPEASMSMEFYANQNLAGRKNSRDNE

[4] = target: T2, D1/D2/F/E/G pentamer (5Sm) (S. cerevisiae, UniProt Q02260 1-109; Q06217 1-110; P54999 1-86; Q12330 1-94; P40204 1-77); experiment: SEC
T2 sequence (looked up) 1: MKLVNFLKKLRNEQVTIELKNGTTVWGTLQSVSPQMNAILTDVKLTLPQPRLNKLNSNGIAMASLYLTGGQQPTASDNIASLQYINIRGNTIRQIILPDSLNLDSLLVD
T2 sequence (looked up) 2: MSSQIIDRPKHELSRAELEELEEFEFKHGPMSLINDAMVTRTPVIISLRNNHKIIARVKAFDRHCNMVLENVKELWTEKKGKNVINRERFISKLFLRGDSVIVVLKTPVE
T2 sequence (looked up) 3: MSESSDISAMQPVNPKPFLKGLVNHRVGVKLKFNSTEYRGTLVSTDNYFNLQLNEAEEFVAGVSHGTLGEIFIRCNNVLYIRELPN
T2 sequence (looked up) 4: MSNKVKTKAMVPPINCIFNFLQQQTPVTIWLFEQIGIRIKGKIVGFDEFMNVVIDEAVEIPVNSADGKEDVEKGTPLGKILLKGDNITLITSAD
T2 sequence (looked up) 5: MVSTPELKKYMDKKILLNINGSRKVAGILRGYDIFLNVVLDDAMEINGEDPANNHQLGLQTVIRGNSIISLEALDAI

[5] = target: T2, D1/D2/F/E/G pentamer (5Sm); experiment: pull-down
[6] = target: T2, D1/D2/F/E/G pentamer (5Sm); experiment: pull-down; remark: listed apart in the source
[7] = target: B2; experiment: SEC
[8] = target: B3; experiment: pull-down
[9] = target: T3, Brr1Δ(122-197) with N-terminal HT-tag (S. cerevisiae, UniProt Q99177 1-341, Δ(122-197)); experiment: pull-down
T3 sequence (looked up): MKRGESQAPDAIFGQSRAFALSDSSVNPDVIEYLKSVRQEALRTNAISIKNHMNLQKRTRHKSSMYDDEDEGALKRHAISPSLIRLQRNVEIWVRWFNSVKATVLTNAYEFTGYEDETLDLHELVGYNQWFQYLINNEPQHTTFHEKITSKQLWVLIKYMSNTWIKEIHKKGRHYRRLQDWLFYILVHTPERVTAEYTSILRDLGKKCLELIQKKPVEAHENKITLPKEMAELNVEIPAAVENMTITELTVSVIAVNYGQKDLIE

binding result [1]: binds
binding result [2]: binds
binding result [3]: binds
B1: D3/B (SmD3/SmB subcomplex, HT-tag removed) (complex, S. cerevisiae)
chain 1: MSKIQVAHSSRLANLIDYKLRVLTQDGRVYIGQLMAFDKHMNLVLNECIEERVPKTQLDKLRPRKDSKDGTTLNIKVEKRVLGLTILRGEQILSTVVEDKPLLSK
chain 2: MTMNGIPVKLLNEAQGHIVSLELTTGATYRGKLVESEDSMNVQLRDVIATEPQGAVTHMDQIFVRGSQIKFIVVPDLLKNAPLFKKNS

Binder: B2
binding result [4]: binds

Binder: B3
binding result [5]: binds

binding result [1]: binds
binding result [2]: binds
binding result [3]: binds
B4: D1/D2 (SmD1/SmD2 subcomplex, HT-tag removed) (complex, S. cerevisiae)
chain 1: MKLVNFLKKLRNEQVTIELKNGTTVWGTLQSVSPQMNAILTDVKLTLPQPRLNKLNSNGIAMASLYLTGGQQPTASDNIASLQYINIRGNTIRQIILPDSLNLDSLLVD
chain 2: MSSQIIDRPKHELSRAELEELEEFEFKHGPMSLINDAMVTRTPVIISLRNNHKIIARVKAFDRHCNMVLENVKELWTEKKGKNVINRERFISKLFLRGDSVIVVLKTPVE

Binder: B5
binding result [4]: binds

Binder: B6
binding result [6]: binds

binding result [7]: binds
binding result [8]: binds
binding result [9]: binds
B7: F/E/G (SmF/SmE/SmG subcomplex, HT-tags removed) (complex, S. cerevisiae)
chain 1: MSESSDISAMQPVNPKPFLKGLVNHRVGVKLKFNSTEYRGTLVSTDNYFNLQLNEAEEFVAGVSHGTLGEIFIRCNNVLYIRELPN
chain 2: MSNKVKTKAMVPPINCIFNFLQQQTPVTIWLFEQIGIRIKGKIVGFDEFMNVVIDEAVEIPVNSADGKEDVEKGTPLGKILLKGDNITLITSAD
chain 3: MVSTPELKKYMDKKILLNINGSRKVAGILRGYDIFLNVVLDDAMEINGEDPANNHQLGLQTVIRGNSIISLEALDAI
